Measured values from PMC6515139, “Oligomeric Architecture of Mouse Activating Nkrp1 Receptors on Living Cells” (International Journal of Molecular Sciences, 2019).
Positions count from the first letter of the chain named. Numbers in names are those of the source.

Columns and labels:
[1] = target: EGFP-Nkrp1a_C88S (mouse (C57BL/6)) (UniProt P27811); assay: FRET or BRET; homo-FRET (steady-state fluorescence anisotropy of EGFP, time-domain, TCSPC) at the plasma membrane of living transfected Jurkat cells on PLL-coated slides, 37 °C; semi-quantitative, calibrated by monomeric LAT and dimeric CD8α
[2] = target: EGFP-Nkrp1a_C74,88S (mouse (C57BL/6)) (UniProt P27811); assay: as above
[3] = target: EGFP-Nkrp1a_C74S (mouse (C57BL/6)) (UniProt P27811); assay: as above
[4] = target: EGFP-Nkrp1c2 (mouse (C57BL/6)); assay: as above
[5] = target: the molecule itself; assay: as above
[6] = target: the molecule itself; assay: SEC + other: SDS-PAGE under reducing and non-reducing conditions; refolded ectodomains on calibrated Superdex 75 (Nkrp1a^ECTO: 150 mM NaCl, 15 mM Tris-HCl pH 7.5; the others: 10 mM HEPES pH 7.4, 100 mM NaCl); main peaks analysed on 15% SDS-PAGE

## EGFP-Nkrp1a_C88S (from UniProt P27811 1-227) (receptor)
[1]
  steady-state anisotropy, mean: 0.267
  steady-state anisotropy, median: 0.266

## EGFP-Nkrp1a_C74,88S (from UniProt P27811 1-227) (receptor)
[2]
  steady-state anisotropy, mean: 0.285
  steady-state anisotropy, median: 0.283

## EGFP-Nkrp1a_C74S (from UniProt P27811 1-227) (receptor)
[3]
  steady-state anisotropy, mean: 0.273
  steady-state anisotropy, median: 0.272

## EGFP-Nkrp1c2 (receptor)
[4]
  steady-state anisotropy, mean: 0.248
  steady-state anisotropy, median: 0.249

B1: EGFP-Nkrp1a (receptor, mouse (C57BL/6), UniProt P27811 1-227, looked up)
chain: MDTARVYFGLKPPRTPGAWHESPPSLPPDACRCPRSHRLALKLSCAGLILLVVTLIGMSVLVRVLIQKPSIEKCYVLIQENLNKTTDCSAKLECPQDWLSHRDKCFQVSHVSNTWEEGLVDCDGKGATLMLIQDQEELRFLLDSIKEKYNSFWIGLRYTLPDMNWKWINGSTLNSDVLKITGDTENDSCAAISGDKVTFESCNSDNRWICQKELYHETLSNYVGYGH
notes: last residue H227; Vector pXJ41; also called Nkrp1a1; a1 isoform; source: Jurkat, transiently transfected, living cells; COS-7, transiently transfected, in lysate; not shown: EGFP (with spacer GSGGGS), N-terminal, kept
[5]
  steady-state anisotropy, mean: 0.269
  steady-state anisotropy, median: 0.271

B2: Nkrp1c1^ECTO (domain or fragment, mouse (C57BL/6), UniProt P27814 70-223, looked up)
chain: SREKCCVFIQENLNKTTDCSVNLECPQDWLLHRDKCFHVSQVSNTWEEGQADCGRKGATLLLIQDQEELRFLLDSIKEKYNSFWIGLRFTLPDMNWKWINGTTFNSDVLKITGVTENGSCASILGDKVTPESCASDNRWICQKELNHETPSNDS
notes: mouse (C57BL/6) Nkrp1c isoform c1 ectodomain with stalk, residues S70-S223; Cloned into pET-30a(+) between NdeI and HindIII; an initiator Met may precede S70 (surmise); The monomeric form bears cysteamine on C88; the dimeric form has a C88-C88 disulfide; also called Nkrpc1^ECTO; recombinant ectodomain of Nkrp1c1
[6]
  stoichiometry N: 2

B3: Nkrp1f^ECTO (domain or fragment, mouse (C57BL/6), UniProt Q8VD98 67-217, looked up)
chain: QKPPIEKCSVAAQENRTELTGRSAILECPRYWHPHWNKCLFVSQISRPWAEGRDACSMEDAILLLIENKEELRFVQNLIKGKEQLFFIGLKYVQKEKIWKWIDGSILNPNLLRITGKDKENSCAIISHTEVFSDSCSSDNHWICQKTLIHV
notes: mouse (C57BL/6) Nkrp1f ectodomain with stalk, residues Q67-V217; Cloned into pET-30a(+) between NdeI and HindIII; an initiator Met may precede Q67 (surmise); The monomeric form bears cysteamine on C74; the dimeric form has a C74-C74 disulfide; also called recombinant ectodomain of Nkrp1f
[6]
  stoichiometry N: 2

B4: EGFP-Nkrp1f (receptor, mouse (C57BL/6), UniProt Q8VD98 1-217, looked up)
chain: MDTSKVHGNVKPFRCPGYKQASSPSFSPDACRCPHWHHLALKSGCAGLILLLLSLIGLSVLVRFLVQKPPIEKCSVAAQENRTELTGRSAILECPRYWHPHWNKCLFVSQISRPWAEGRDACSMEDAILLLIENKEELRFVQNLIKGKEQLFFIGLKYVQKEKIWKWIDGSILNPNLLRITGKDKENSCAIISHTEVFSDSCSSDNHWICQKTLIHV
notes: last residue V217; Vector pXJ41; also called f isoform; source: Jurkat, transiently transfected, living cells; COS-7, transiently transfected, in lysate; not shown: EGFP (with spacer GSGGGS), N-terminal, kept
[5]
  steady-state anisotropy, mean: 0.25
  steady-state anisotropy, median: 0.25

B5: EGFP-Nkrp1f_C74S (receptor, mouse (C57BL/6), UniProt Q8VD98 1-217, looked up)
chain: B4 chain with C74S
notes: Two extra C-terminal residues (Thr-Gly) possible as for m8 (surmise from the primer); also called C74S mutant of Nkrp1f; source: Jurkat, transiently transfected, living cells; COS-7, transiently transfected, in lysate; not shown: EGFP (with spacer GSGGGS), N-terminal, kept
[5]
  steady-state anisotropy, mean: 0.281
  steady-state anisotropy, median: 0.281

B6: EGFP-Nkrp1c1 (receptor, mouse (C57BL/6), UniProt P27814 1-223, looked up)
chain: MDTASIYLGLKPPRTLGAWHESPPSLPPDACRCPRSHRLALKLSCAGLILLVLTLIGMSVLVRVLVQKPSREKCCVFIQENLNKTTDCSVNLECPQDWLLHRDKCFHVSQVSNTWEEGQADCGRKGATLLLIQDQEELRFLLDSIKEKYNSFWIGLRFTLPDMNWKWINGTTFNSDVLKITGVTENGSCASILGDKVTPESCASDNRWICQKELNHETPSNDS
notes: last residue S223; Vector pXJ41; also called c1 isoform; source: Jurkat, transiently transfected, living cells; COS-7, transiently transfected, in lysate; not shown: EGFP (with spacer GSGGGS), N-terminal, kept
[5]
  steady-state anisotropy, mean: 0.244
  steady-state anisotropy, median: 0.242
